System: peptide library, one residue held at a place counted from the S/T acceptor
Experiment: relative phosphorylation of the sub-library (ratio to the mean residue at this position); higher = residue favoured
Conditions: human
Outline: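 Spots on streptavidin membranes were phosphorimaged and quantified by densitometry to measure phosphorylation of biotinylated degenerate peptide sub-libraries by purified recombinant kinases, human or orthologue constructs. The reactions ran in 384-well plates for 90 min under kinase-specific conditions, with peptides at 50 μM and 50 μM ATP spiked with γ-32P-ATP. Relative sub-library phosphorylation is the ratio to the mean residue at that position.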

Chain of SIK1, construct: aa1-303 (P57059 1-303, looked up): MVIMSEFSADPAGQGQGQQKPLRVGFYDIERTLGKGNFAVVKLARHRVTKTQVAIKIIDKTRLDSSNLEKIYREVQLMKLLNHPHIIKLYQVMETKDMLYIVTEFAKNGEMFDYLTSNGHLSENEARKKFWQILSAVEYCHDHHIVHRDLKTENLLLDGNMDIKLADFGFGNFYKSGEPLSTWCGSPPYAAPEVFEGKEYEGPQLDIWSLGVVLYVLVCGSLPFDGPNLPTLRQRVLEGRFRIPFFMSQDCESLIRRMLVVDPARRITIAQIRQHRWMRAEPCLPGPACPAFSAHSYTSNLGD
Chain of TGFBR1, construct: aa20-end (P36897 20-503, looked up): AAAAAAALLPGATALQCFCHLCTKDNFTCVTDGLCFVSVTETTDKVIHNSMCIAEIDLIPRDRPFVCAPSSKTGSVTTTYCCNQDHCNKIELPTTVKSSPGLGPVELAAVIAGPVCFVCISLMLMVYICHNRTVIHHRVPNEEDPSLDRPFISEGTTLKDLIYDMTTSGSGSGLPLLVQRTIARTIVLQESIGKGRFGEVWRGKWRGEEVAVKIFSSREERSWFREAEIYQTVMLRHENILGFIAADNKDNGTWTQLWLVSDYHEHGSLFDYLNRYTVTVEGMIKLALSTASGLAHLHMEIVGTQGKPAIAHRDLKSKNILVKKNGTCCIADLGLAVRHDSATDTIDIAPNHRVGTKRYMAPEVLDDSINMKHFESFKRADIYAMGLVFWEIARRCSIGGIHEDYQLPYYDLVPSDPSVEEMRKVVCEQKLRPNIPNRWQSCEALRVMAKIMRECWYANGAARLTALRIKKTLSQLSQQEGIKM
Chain of ROCK1, construct: aa1-535 (Q13464 1-535, looked up): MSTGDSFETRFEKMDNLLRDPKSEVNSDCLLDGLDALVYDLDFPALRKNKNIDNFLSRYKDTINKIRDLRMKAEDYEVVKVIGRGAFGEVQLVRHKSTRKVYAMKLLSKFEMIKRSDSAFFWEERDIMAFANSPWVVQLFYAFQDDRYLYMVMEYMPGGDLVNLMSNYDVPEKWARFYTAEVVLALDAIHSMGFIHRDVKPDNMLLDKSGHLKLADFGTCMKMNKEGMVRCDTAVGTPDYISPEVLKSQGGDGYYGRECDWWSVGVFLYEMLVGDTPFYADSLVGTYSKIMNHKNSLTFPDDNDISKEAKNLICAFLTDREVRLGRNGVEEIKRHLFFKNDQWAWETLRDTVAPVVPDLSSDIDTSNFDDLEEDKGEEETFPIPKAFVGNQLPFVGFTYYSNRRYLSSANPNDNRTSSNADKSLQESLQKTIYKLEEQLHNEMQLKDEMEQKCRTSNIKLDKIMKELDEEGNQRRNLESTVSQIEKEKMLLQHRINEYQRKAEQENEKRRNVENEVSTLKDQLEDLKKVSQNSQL
Chain of PNCK, construct: Full length (Q6P2M8 whole entry, looked up): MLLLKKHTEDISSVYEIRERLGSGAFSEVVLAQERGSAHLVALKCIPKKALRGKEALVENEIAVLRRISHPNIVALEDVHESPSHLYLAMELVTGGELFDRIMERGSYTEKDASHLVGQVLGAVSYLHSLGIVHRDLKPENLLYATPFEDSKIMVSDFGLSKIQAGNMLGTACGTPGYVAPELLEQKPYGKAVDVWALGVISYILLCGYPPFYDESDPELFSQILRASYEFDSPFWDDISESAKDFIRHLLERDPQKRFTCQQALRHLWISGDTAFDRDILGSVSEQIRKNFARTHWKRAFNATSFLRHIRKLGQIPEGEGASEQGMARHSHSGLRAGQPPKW

PNCK, construct: Full length (from UniProt Q6P2M8)
relative phosphorylation
Conditions	at +1	at +2	at +3	at +4	at -1	at -2	at -3	at -4	at -5
A fixed	0.986	1.09	1	0.953	0.983	1.03	0.881	0.95	0.856
D fixed	0.844	1.03	1.2	1.01	1.07	0.666	0.626	0.713	0.718
E fixed	0.919	1.03	1.07	0.985	0.92	0.678	0.644	0.803	0.726
F fixed	1.37	0.986	1	1.07	0.904	0.687	0.659	0.921	1.12
G fixed	0.879	0.871	1.01	1.01	1.01	0.814	0.678	0.863	0.833
H fixed	0.96	1.28	1.02	0.93	1.06	0.826	0.799	0.921	0.839
I fixed	0.869	1.01	0.851	1.13	0.785	0.795	0.741	1.06	1.12
K fixed	1.13	0.889	0.962	0.927	1.32	1.88	1.84	1.7	1.13
L fixed	0.866	0.98	0.913	1.2	0.826	0.764	0.694	1.1	1.56
M fixed	0.938	0.893	0.876	0.982	0.869	0.855	0.668	0.986	1.07
N fixed	1.06	0.966	1.26	0.96	1.41	0.934	0.732	0.892	0.822
P fixed	0.777	0.914	0.92	1.07	1.07	0.641	0.649	0.787	0.994
Q fixed	1.19	0.947	0.976	1	0.983	1.46	0.826	1.01	0.958
R fixed	1.39	1.02	0.958	0.875	1.32	2.64	4.54	1.49	1.44
V fixed	0.873	1.02	0.885	0.991	0.795	0.8	0.679	1.05	0.956
W fixed	0.909	0.916	1.02	0.989	0.81	0.829	0.7	0.835	0.873
Y fixed	1.02	1.14	1.08	0.91	0.86	0.706	0.644	0.91	0.973
pThr fixed	1.16	1.29	1.1	1.13	0.832	0.701	0.723	0.902	0.774
pTyr fixed	1.12	2.97	1.42	1.04	1.02	0.701	0.684	0.799	0.897

ROCK1, construct: aa1-535 (from UniProt Q13464)
relative phosphorylation
Conditions	at +1	at +2	at +3	at +4	at -1	at -2	at -3	at -4	at -5
A fixed	0.632	0.883	1.01	0.721	0.745	0.528	0.549	0.906	0.953
D fixed	0.366	0.412	0.54	0.674	0.384	0.203	0.219	0.44	0.454
E fixed	0.358	0.39	0.488	0.656	0.303	0.188	0.231	0.525	0.462
F fixed	0.758	0.678	1.11	1.13	0.579	0.42	0.343	0.653	0.703
G fixed	0.706	0.773	1.42	1.06	1.03	0.534	0.577	1.1	1.06
H fixed	0.963	1.13	1.23	1.15	1.23	1.12	1.35	1.15	1.19
I fixed	1.43	1.13	0.81	0.866	0.52	0.268	0.28	0.532	0.603
K fixed	1.1	1.6	1.08	1.35	2.43	2.69	2.63	2.22	2.44
L fixed	1.57	1.2	1.01	1.06	1.02	0.359	0.316	0.571	0.495
M fixed	1.64	0.968	0.913	0.999	1.06	0.448	0.352	0.732	0.586
N fixed	1.38	0.854	0.988	1.15	1.14	0.906	0.575	0.89	0.878
P fixed	0.224	0.727	1.15	0.994	0.816	0.43	0.412	0.891	0.931
Q fixed	1.33	0.866	0.897	1.12	1.11	0.842	0.703	0.88	0.83
R fixed	2.22	2.27	1.34	1.37	2.27	6.35	7.13	3.19	3.2
V fixed	0.969	1.26	0.818	0.709	0.648	0.317	0.293	0.657	0.672
W fixed	0.704	0.808	1.16	1.07	0.673	0.774	0.562	0.885	0.759
Y fixed	0.648	1.05	1.03	0.927	1.05	0.623	0.485	0.777	0.778
pThr fixed	0.432	0.607	0.507	0.658	0.315	0.378	0.392	0.712	0.745
pTyr fixed	0.477	0.576	0.731	0.674	0.525	0.329	0.407	0.625	0.817

TGFBR1, construct: aa20-end (from UniProt P36897)
relative phosphorylation
Conditions	at +1	at +2	at +3	at +4	at -1	at -2	at -3	at -4	at -5
A fixed	0.823	1.16	0.888	0.966	0.853	0.688	0.982	1.11	1.12
D fixed	1.69	1.71	1.48	1.29	1.42	1.62	1.5	1.39	1.15
E fixed	2.27	1.57	1.94	1.55	1.78	7.31	1.73	1.22	1.21
F fixed	1	1.05	0.773	0.942	0.858	0.397	0.748	0.805	0.908
G fixed	0.779	1.13	1.63	1.2	0.834	0.712	1.19	1.33	1.1
H fixed	1.15	0.728	0.792	0.846	0.968	0.513	0.894	0.991	0.944
I fixed	1.03	1.07	0.954	1.01	0.86	0.474	0.814	0.96	0.929
K fixed	0.396	0.545	0.448	0.59	0.5	0.4	0.598	0.719	0.892
L fixed	0.751	0.706	0.899	0.908	1.18	0.486	0.841	0.943	0.878
M fixed	1.25	0.915	0.916	0.871	1.35	0.545	1.1	1.02	0.983
N fixed	0.733	0.874	0.809	0.879	1.06	0.767	1.06	1.15	1.31
P fixed	0.522	1.07	1.32	1.32	0.592	0.459	0.982	1.09	1.03
Q fixed	0.826	0.717	0.794	0.834	1.04	0.893	0.992	0.865	0.917
R fixed	0.357	0.489	0.467	0.519	0.589	0.435	0.633	0.697	0.844
V fixed	1.05	1.18	1.02	0.959	1.26	0.501	0.924	1.02	0.978
W fixed	0.919	0.954	0.915	1.27	0.804	0.4	1.2	0.787	0.822
Y fixed	1.44	1.12	0.956	1.03	1.04	0.401	0.815	0.89	0.98
pThr fixed	3.78	1.38	1.04	1.62	1.19	1.48	1.07	0.963	0.853
pTyr fixed	4.22	1.82	1.39	1.66	1.51	0.639	1.08	1.05	0.835

SIK1, construct: aa1-303 (from UniProt P57059)
relative phosphorylation
Conditions	at +1	at +2	at +3	at +4	at -1	at -2	at -3	at -4	at -5
A fixed	0.56	1.1	0.618	0.641	0.972	1.89	0.589	0.941	1.01
D fixed	0.593	0.666	1.84	0.416	0.724	0.326	0.282	0.786	0.672
E fixed	0.718	0.524	0.523	0.334	0.46	0.304	0.309	0.966	0.746
F fixed	0.996	0.694	1.08	0.86	0.432	1.13	0.47	0.768	1.22
G fixed	0.493	0.841	0.595	0.697	2.75	0.851	0.382	1.01	0.737
H fixed	0.797	0.662	1.18	0.767	0.966	1.44	0.877	1.24	0.829
I fixed	1.18	1.06	0.907	2.22	0.289	0.451	0.24	0.457	0.721
K fixed	0.839	0.992	0.716	0.722	1.76	1.23	2.52	1.61	1.31
L fixed	1.11	0.626	0.992	4.05	0.722	0.35	0.343	0.535	1.7
M fixed	1.87	0.998	0.928	1.48	0.82	0.556	0.508	0.93	1.09
N fixed	1.2	1.09	2.97	0.688	1.43	0.809	0.587	1.01	0.894
P fixed	0.315	1.08	0.439	0.676	1.24	0.347	0.505	1.09	0.831
Q fixed	2.08	0.958	0.965	0.557	1.4	0.784	0.675	1.01	0.958
R fixed	1.16	1.33	0.659	0.518	1.22	1.35	6.57	1.86	1.65
V fixed	1.23	1.1	0.599	1.12	0.565	0.868	0.329	0.512	0.744
W fixed	0.868	2.13	0.916	0.695	0.516	2.72	1.25	1.24	1.05
Y fixed	0.982	1.14	1.08	0.564	0.732	1.59	0.569	1.03	0.832
pThr fixed	0.764	0.579	0.35	0.475	0.285	0.388	0.433	0.706	0.562
pTyr fixed	0.75	0.358	0.419	0.526	0.812	0.469	0.515	0.699	0.731

— the supplement of paper PMC9876800
